Data taken from paper PMC9234707.

B1: BMP15 (ligand)
chain: QADGISAEVTASSSKHSGPENNQCSLHPFQISFRQLGWDHWIIAPPFYTPNYCKGTCLRVLRDGLNSPNHAIIQNLINQLVDQSVPRPSCVPYKYVPISVLMIEANGSILYKEYEGMIAESCTCR
B2: activin B (ligand)
chain: GLECDGRTNLCCRQQFFIDFRLIGWNDWIIAPTGYYGNYCEGSCPAYLAGVPGSASSFHTAVVNQYRMRGLNPGTVNSCCIPTKLSTMSMLYFDDEYNIVKRDVPNMIVEECGCA
B3: Nodal (ligand)
chain: HHLPDRSQLCRKVKFQVDFNLIGWGSWIIYPKQYNAYRCEGECPNPVGEEFHPTNHAYIQSLLKRYQPHRVPSTCCAPVKTKPLSMLYVDNGRVLLDHHKDMIVEECGCL
B4: GDF11 (ligand)
chain: NLGLDCDEHSSESRCCRYPLTVDFEAFGWDWIIAPKRYKANYCSGQCEYMFMQKYPHTHLVQQANPRGSAGPCCTPTKMSPINMLYFNDKQQIIYGKIPGMVVDRCGCS
B5: BMP10 (ligand)
chain: NAKGNYCKRTPLYIDFKEIGWDSWIIAPPGYEAYECRGVCNYPLAEHLTPTKHAIIQALVHLKNSQKASKACCVPTKLEPISILYLDKGVVTYKFKYEGMAVSECGCR

Assays:
[1] = target: BMPR2 GBD-Fc (WT) (human) (UniProt Q13873); test: SPR; BIAcore 3000; receptor-Fc (about 500 RU BMPR2-Fc WT or variants, 150 RU ACVR2A-Fc) captured on immobilised anti-human IgG (Fc), CM5 chip; single injections of 80 nM GF, single curve fits, averages of two independent injections; 25 °C; HBS/EPS (0.01 M Hepes, 0.5 M NaCl, 3 mM EDTA, 0.005% Tween 20, pH 7.4) with 0.1% bovine serum albumin; 50 μl/min; 1:1 binding model, KD = kd/ka
ACVR2A GBD-Fc (human) [2] = target: ACVR2A GBD-Fc (human) (UniProt P27037); test: as above
[3] = target: BMPR2-Fc variant Q92H (human) (UniProt Q13873); test: SPR; BIAcore 3000; receptor-Fc captured on immobilised anti-human IgG (Fc), CM5 chip; titration, global fit of 2.5, 5.0, 10.0, 20.0 and 40.0 nM GF injections; 25 °C; HBS/EPS (0.01 M Hepes, 0.5 M NaCl, 3 mM EDTA, 0.005% Tween 20, pH 7.4) with 0.1% bovine serum albumin; 50 μl/min; 1:1 binding model, KD = kd/ka
[4] = target: BMPR2 GBD-Fc (WT) (human) (UniProt Q13873); test: as above
[5] = target: BMPR2-Fc variant S107P (human) (UniProt Q13873); test: as above
[6] = target: BMPR2-Fc variant Q42R (human) (UniProt Q13873); test: as above
[7] = target: BMPR2-Fc variant G47D (human) (UniProt Q13873); test: as above
[8] = target: BMPR2 GBD-Fc (WT) (human) (UniProt Q13873); test: as above; remark: listed apart in the source
ACVR2A GBD-Fc (human) [9] = target: ACVR2A GBD-Fc (human) (UniProt P27037); test: as above
[10] = target: BMPR2-Fc variant Q92H (human) (UniProt Q13873); test: SPR; BIAcore 3000; receptor-Fc (about 500 RU BMPR2-Fc WT or variants, 150 RU ACVR2A-Fc) captured on immobilised anti-human IgG (Fc), CM5 chip; single injections of 80 nM GF, single curve fits, averages of two independent injections; 25 °C; HBS/EPS (0.01 M Hepes, 0.5 M NaCl, 3 mM EDTA, 0.005% Tween 20, pH 7.4) with 0.1% bovine serum albumin; 50 μl/min; 1:1 binding model, KD = kd/ka
[11] = target: BMPR2 GBD-Fc (WT) (human) (UniProt Q13873); test: as above; remark: listed apart in the source
[12] = target: BMPR2-Fc variant S107P (human) (UniProt Q13873); test: as above
[13] = target: BMPR2-Fc variant Q42R (human) (UniProt Q13873); test: as above
[14] = target: BMPR2-Fc variant G47D (human) (UniProt Q13873); test: as above

Sequence of ACVR2A GBD-Fc (human) (P27037 whole entry): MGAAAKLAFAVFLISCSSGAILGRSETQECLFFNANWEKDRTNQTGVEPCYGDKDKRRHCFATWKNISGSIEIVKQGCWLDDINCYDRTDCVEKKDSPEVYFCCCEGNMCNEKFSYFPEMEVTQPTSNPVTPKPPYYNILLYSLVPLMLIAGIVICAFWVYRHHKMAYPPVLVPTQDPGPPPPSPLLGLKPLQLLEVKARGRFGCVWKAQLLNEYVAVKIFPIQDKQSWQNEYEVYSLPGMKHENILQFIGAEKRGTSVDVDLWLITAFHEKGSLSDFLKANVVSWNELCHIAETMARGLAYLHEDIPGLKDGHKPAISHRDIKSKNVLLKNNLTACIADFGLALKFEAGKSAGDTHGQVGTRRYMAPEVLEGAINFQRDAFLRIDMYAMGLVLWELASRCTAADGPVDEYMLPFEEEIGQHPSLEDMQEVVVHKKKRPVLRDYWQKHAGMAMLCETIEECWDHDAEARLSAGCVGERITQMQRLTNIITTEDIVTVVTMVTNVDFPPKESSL
Sequence of BMPR2 GBD-Fc (WT) (human) (Q13873 whole entry): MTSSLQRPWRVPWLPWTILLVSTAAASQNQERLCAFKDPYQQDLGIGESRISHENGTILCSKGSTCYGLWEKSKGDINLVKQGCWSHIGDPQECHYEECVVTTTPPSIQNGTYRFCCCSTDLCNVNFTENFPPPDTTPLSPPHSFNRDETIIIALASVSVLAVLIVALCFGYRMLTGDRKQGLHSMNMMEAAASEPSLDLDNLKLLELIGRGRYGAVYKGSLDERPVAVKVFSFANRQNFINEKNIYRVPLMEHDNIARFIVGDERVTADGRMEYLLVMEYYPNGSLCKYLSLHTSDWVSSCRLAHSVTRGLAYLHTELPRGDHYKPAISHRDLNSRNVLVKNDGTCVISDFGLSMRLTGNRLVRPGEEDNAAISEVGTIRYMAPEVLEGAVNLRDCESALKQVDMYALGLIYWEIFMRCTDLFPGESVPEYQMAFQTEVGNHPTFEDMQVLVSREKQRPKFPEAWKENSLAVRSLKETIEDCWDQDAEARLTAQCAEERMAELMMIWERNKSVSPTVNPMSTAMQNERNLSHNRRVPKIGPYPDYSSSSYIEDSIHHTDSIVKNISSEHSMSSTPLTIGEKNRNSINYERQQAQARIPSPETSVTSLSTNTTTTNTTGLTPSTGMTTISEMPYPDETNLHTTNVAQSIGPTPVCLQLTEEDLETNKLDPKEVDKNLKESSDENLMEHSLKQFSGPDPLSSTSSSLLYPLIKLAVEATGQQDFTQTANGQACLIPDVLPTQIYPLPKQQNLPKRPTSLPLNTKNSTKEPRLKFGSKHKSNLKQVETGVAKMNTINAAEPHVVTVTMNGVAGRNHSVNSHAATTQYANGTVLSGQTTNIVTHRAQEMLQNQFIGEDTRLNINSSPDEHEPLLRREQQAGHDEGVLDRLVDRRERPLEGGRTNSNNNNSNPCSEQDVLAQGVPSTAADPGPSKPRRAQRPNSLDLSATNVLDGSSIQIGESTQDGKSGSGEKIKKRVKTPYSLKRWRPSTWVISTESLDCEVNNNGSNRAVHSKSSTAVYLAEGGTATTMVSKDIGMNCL

Binder	Kd [1]	koff [1]	kon [1]	Kd (ACVR2A GBD-Fc (human) [2])	koff (ACVR2A GBD-Fc (human) [2])	kon (ACVR2A GBD-Fc (human) [2])	Kd [3]	koff [3]	kon [3]	Kd [5]	koff [5]	kon [5]	Kd [6]	koff [6]	kon [6]	Kd [7]	koff [7]	kon [7]	Kd [8]	koff [8]	further results
B1	6.3 nM	0.0021 s⁻¹	330000 M⁻¹ s⁻¹																		
B2	2.3 nM	0.0018 s⁻¹	790000 M⁻¹ s⁻¹	0.053 nM	7.4e-05 s⁻¹	1.4e+06 M⁻¹ s⁻¹	1.1 nM	0.00044 s⁻¹	400000 M⁻¹ s⁻¹	0.28 nM	0.00019 s⁻¹	670000 M⁻¹ s⁻¹	1.4 nM	0.00082 s⁻¹	580000 M⁻¹ s⁻¹	1.3 nM	0.00058 s⁻¹	430000 M⁻¹ s⁻¹	0.71 nM	0.00062 s⁻¹	koff [4]: 0.00082 s⁻¹; kon [8]: 880000 M⁻¹ s⁻¹; Kd (ACVR2A GBD-Fc (human) [9]): 0.0016 nM; koff (ACVR2A GBD-Fc (human) [9]): 9.7e-06 s⁻¹; kon (ACVR2A GBD-Fc (human) [9]): 6.1e+06 M⁻¹ s⁻¹; Kd [10]: 1.8 nM; koff [10]: 0.00072 s⁻¹; kon [10]: 400000 M⁻¹ s⁻¹; Kd [11]: 4.1 nM; kon [11]: 470000 M⁻¹ s⁻¹; Kd [12]: 2.6 nM; koff [12]: 0.0015 s⁻¹; kon [12]: 610000 M⁻¹ s⁻¹; Kd [13]: 5 nM; koff [13]: 0.0021 s⁻¹; kon [13]: 420000 M⁻¹ s⁻¹; Kd [14]: 2.9 nM; koff [14]: 0.0013 s⁻¹; kon [14]: 440000 M⁻¹ s⁻¹
B3	3.2 nM	0.00014 s⁻¹	42000 M⁻¹ s⁻¹																		
B4				0.052 nM	0.00018 s⁻¹	3.5e+06 M⁻¹ s⁻¹															
B5	2.1 nM	0.00019 s⁻¹	91000 M⁻¹ s⁻¹	1 nM	0.00035 s⁻¹	360000 M⁻¹ s⁻¹	0.32 nM	7.8e-05 s⁻¹	250000 M⁻¹ s⁻¹	1 nM	1.9e-05 s⁻¹	19000 M⁻¹ s⁻¹	2.3 nM	7.9e-05 s⁻¹	34000 M⁻¹ s⁻¹	0.02 nM	2.8e-06 s⁻¹	140000 M⁻¹ s⁻¹	2.4 nM	5.5e-05 s⁻¹	kon [8]: 23000 M⁻¹ s⁻¹; Kd [10]: 1.8 nM; koff [10]: 0.00015 s⁻¹; kon [10]: 90000 M⁻¹ s⁻¹; Kd [11]: 1.8 nM; koff [11]: 0.00017 s⁻¹; kon [11]: 94000 M⁻¹ s⁻¹; Kd [12]: 0.86 nM; koff [12]: 0.00018 s⁻¹; kon [12]: 210000 M⁻¹ s⁻¹; Kd [13]: 2.5 nM; koff [13]: 0.00021 s⁻¹; kon [13]: 83000 M⁻¹ s⁻¹; Kd [14]: 0.58 nM; koff [14]: 3.8e-05 s⁻¹; kon [14]: 65000 M⁻¹ s⁻¹
